Experimental findings from doi:10.1101/2023.04.12.536585 (2023) are described below.

Experiment [1] deals with p110γ-p101 complex (human p110γ, porcine p101) (human | porcine (Sus scrofa), UniProt P48736 1-1102; O02696 1-877). Nature of the experiment: BLI.
In experiment [2] the target is p110γ-p84 complex (human p110γ, mouse p84) (human | mouse, UniProt P48736 1-1102; Q3U6Q4 1-756). Nature of the experiment: BLI.
Chain of p110γ-p84 complex (human p110γ, mouse p84) (P48736 whole entry, chain 1 of 2): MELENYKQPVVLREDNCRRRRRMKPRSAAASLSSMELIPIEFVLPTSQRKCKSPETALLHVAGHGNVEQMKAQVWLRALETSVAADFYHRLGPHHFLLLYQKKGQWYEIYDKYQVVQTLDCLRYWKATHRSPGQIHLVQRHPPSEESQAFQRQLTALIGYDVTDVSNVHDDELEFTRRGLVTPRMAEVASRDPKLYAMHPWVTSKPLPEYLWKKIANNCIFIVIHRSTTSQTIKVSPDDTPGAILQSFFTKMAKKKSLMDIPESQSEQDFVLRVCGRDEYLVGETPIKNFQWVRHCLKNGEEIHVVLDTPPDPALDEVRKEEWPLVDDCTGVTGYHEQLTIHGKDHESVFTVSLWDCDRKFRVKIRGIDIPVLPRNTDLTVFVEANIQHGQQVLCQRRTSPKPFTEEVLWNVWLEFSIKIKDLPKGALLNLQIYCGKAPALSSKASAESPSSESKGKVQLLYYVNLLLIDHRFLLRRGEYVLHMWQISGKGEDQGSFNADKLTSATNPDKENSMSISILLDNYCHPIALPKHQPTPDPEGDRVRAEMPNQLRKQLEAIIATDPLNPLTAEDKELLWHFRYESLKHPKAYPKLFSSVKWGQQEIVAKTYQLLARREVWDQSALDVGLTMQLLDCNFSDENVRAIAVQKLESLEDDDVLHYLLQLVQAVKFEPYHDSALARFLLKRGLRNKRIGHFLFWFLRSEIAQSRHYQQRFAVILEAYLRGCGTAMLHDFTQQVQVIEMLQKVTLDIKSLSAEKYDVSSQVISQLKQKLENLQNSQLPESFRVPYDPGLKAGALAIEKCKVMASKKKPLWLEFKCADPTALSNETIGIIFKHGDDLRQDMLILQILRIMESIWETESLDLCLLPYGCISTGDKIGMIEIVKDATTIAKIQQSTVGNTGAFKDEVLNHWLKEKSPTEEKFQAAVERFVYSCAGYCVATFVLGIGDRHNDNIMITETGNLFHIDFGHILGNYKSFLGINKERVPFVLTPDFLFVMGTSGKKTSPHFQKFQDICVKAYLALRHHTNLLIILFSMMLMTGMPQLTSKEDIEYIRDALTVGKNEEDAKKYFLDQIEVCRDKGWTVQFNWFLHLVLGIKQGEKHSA
Chain of p110γ-p84 complex (human p110γ, mouse p84) (Q3U6Q4 whole entry, chain 2 of 2): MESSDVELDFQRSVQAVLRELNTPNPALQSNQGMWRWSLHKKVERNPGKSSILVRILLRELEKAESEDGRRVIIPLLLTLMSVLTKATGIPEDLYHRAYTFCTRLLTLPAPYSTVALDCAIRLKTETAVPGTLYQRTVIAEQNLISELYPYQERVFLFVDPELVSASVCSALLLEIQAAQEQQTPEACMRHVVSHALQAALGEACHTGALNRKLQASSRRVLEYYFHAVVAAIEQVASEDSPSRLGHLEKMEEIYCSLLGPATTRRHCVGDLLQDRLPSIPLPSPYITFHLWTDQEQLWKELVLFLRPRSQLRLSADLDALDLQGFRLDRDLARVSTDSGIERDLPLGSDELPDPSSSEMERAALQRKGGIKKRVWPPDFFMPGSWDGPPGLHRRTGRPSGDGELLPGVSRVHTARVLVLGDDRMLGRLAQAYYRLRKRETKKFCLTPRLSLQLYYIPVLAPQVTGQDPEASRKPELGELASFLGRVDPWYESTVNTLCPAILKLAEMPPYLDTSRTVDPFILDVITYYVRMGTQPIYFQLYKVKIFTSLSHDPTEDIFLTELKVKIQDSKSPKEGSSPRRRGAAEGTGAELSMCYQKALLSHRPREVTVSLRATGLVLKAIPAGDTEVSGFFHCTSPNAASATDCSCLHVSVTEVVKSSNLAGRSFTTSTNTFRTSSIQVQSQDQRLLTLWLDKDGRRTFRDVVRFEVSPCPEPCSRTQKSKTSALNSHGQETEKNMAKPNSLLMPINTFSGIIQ

Chain of p110γ-p101 complex (human p110γ, porcine p101) (P48736 whole entry, chain 1 of 2): as the sequence (P48736 whole entry, chain 1 of 2) above
Chain of p110γ-p101 complex (human p110γ, porcine p101) (O02696 whole entry, chain 2 of 2): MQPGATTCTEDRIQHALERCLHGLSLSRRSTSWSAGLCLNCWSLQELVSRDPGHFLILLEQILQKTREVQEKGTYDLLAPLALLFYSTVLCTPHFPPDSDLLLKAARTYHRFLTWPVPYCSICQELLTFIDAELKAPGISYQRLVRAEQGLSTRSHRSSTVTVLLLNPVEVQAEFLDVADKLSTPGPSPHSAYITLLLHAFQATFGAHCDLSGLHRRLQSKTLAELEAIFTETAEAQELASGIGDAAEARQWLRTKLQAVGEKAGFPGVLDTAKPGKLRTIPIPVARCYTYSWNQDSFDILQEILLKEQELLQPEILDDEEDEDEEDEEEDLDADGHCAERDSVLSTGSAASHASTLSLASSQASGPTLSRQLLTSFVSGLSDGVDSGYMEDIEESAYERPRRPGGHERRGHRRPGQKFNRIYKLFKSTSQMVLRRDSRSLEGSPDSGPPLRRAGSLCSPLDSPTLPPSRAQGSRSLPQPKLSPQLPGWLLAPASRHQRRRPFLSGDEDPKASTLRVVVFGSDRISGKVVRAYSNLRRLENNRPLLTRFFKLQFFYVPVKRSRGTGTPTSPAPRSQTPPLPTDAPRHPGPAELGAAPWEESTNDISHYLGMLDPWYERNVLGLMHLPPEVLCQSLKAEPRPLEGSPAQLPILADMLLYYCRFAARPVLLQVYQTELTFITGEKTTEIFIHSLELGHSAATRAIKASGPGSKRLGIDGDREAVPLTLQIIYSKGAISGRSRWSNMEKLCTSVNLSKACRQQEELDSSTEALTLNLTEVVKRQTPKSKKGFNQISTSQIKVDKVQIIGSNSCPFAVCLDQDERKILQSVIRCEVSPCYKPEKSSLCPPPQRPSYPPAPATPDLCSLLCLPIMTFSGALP

B1: Nanobody NB7-PIK3CG (VHH)
VHH: QVQLVESGGGLVQPGGSLRLSCAASGSIFSINAMGWYRQAPGKQRELVAHITSGGSTNYADSVKGRFTISRDNAKNTVYLQMNSLKPEDTAVYYCNEAGDPFLGSTWNGPPAFGSWGQGTQVTVSS
B1: the dissociation constant (Kd) (usually the equilibrium constant for the complex coming apart) in experiment [1] was determined as 3.1 nM; in experiment [2] it was 3 nM.
